How the values were obtained:
[1] = target: T1, Opti-HEK-VKOR-IIa (FX-IIa with the factor X signal peptide and factor X propeptide variant, co-expressed with human VKOR in HEK, aptamer-purified)
T1 chain 1: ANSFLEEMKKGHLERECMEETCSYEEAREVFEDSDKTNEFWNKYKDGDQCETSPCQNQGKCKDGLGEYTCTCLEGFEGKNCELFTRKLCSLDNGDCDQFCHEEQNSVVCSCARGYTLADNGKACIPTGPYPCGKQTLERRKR
T1 chain 2: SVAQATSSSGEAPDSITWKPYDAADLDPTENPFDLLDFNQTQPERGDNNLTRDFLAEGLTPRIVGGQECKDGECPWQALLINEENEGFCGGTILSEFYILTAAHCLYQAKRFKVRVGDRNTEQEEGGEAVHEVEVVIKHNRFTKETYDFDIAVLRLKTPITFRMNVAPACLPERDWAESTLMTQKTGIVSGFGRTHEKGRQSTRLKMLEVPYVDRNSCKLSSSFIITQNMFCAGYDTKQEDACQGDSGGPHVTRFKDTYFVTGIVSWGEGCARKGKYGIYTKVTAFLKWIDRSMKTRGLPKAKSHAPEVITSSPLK

[2] = target: T2, FVIIv1-psFX-IIa-F2 (FX-IIa expressed with the factor X signal peptide and the FVII isoform v1 propeptide, from HEK, aptamer-purified)
T2 chain 1: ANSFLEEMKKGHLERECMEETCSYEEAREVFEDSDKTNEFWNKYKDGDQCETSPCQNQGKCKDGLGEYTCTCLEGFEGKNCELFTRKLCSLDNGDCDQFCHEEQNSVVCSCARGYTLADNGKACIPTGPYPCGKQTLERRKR
T2 chain 2: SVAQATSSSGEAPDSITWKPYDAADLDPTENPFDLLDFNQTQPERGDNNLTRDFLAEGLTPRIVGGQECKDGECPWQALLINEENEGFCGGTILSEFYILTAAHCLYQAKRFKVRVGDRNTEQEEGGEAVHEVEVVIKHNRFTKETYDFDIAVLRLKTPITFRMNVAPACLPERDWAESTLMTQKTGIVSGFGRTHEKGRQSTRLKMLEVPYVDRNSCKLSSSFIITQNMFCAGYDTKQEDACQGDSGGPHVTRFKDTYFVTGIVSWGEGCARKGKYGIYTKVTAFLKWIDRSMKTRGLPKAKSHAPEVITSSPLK

B1: factor VIIa/tissue factor (TF) complex (protein)
chain 1: ANAFLEELRPGSLERECKEEQCSFEEAREIFKDAERTKLFWISYSDGDQCASSPCQNGGSCKDQLQSYICFCLPAFEGRNCETHKDDQLICVNENGGCEQYCSDHTGTKRSCRCHEGYSLLADGVSCTPTVEYPCGKIPILEKRNASKPQGRIVGGKVCPKGECPWQVLLLVNGAQLCGGTLINTIWVVSAAHCFDKIKNWRNLIAVLGEHDLSEHDGDEQSRRVAQVIIPSTYVPGTTNHDIALLRLHQPVVLTDHVVPLCLPERTFSERTLAFVRFSLVSGWGQLLDRGATALELMVLNVPRLMTQDCLQQSRKVGDSPNITEYMFCAGYSDGSKDSCKGDSGGPHATHYRGTWYLTGIVSWGQGCATVGHFGVYTRVSQYIEWLQKLMRSEPRPGVLLRAPFP
chain 2: SGTTNTVAAYNLTWKSTNFKTILEWEPKPVNQVYTVQISTKSGDWKSKCFYTTDTECDLTDEIVKDVKQTYLARVFSYPAGNVESTGSAGEPLYENSPEFTPYLETNLGQPTIQSFEQVGTKVNVTVEDERTLVRRNNTFLSLRDVFGKDLIYTLYYWKSSSSGKKTAKTNTNEFLIDVDKGENYCFSVQAVIPSRTVNRKSTDSPVECMGQEKGEFREIFYIIGAVVFVVIILVIILAISLHKCRKAGVGQSWKENSPLNVS
In the case of B1, the “FXa generated after incubation with FVIIa/TF (rate of hydrolysis of PNAPEP substrate), percent of the plasma FXa control” value [1] is reported as 27% activated relative to the FXa for Opti-HEK-VKOR-IIa, the “FXa generated after incubation with FVIIa/TF (rate of hydrolysis of PNAPEP substrate), percent of the plasma FXa control” value [2] is reported as 36% activated relative to the FXa for FVIIv1-psFX-IIa-F2 and the “activity after FVIIa/TF activation, percent of that of the molecule containing the wild-type propeptide (Opti-HEK-VKOR-IIa)” value [2] is reported as “an activity of 142% of that of the molecule containing the wild-type propeptide”.

— patent US20190338269
